The values that follow come from patent US20080139472A1, “UPREGULATING BDNF LEVELS TO MITIGATE MENTAL RETARDATION” (THE REGENTS OF THE UNIVERSITY OF CALIFORNIA, priority 2006, published 2008).

Entries after “also recorded” stand apart in the source; their conditions may differ.

Type in all cases: cell-based, mouse
One assay relates to NMDA receptor. The experiment in a line: NMDA receptor contribution to theta burst responses in hippocampal slices, estimated with APV. How it is done:
(§1) Transverse hippocampal slices (350 m) through the mid-septotemporal hippocampus were prepared with a vibratome (VT 1000 S; Leica, Bannockbum, Ill.) in ice-cold artificial CSF [ACSF; containing (in mM) 124 NaCl, 3 KCl, 1.25 KH2PO4, 3.4 CaCl2, 2.5 MgSO4, 26 NaHCO3, and 10 dextrose, pH 7.35) from young (2-3 months old) adult Fmr1-KO and wild-type (WT) mice (unless otherwise specified, chemicals were from Sigma, St. Louis, Mo.). […] Related to this, pharmacological results obtained with such slices accurately predict effects obtained with chronic recordings or biochemical assays from behaving animals (Staubli et al., 1994; Lauterbom et al., 2003), a point that is of importance to those aspects of the present work concerned with therapeutic strategies. All experiments were initiated between 9:00 and 11:00 A.M., and slices from Fmr1-KO and WT animals were randomized across two chambers and run simultaneously. Slices were maintained at 31±1° C. in an interface recording chamber with the slice surface exposed to warm, humidified 95% O2/5% CO2 and continuous ACSF perfused at a rate of 60-70 ml/hr. Slices equilibrated to the chamber for at least 1 h before recordings were initiated. […] Evoked responses were digitized (NacGather 2.0; Theta Burst, Irvine, Calif.) and analyzed for amplitude and fall slope; data are presented as a percentage of baseline. Responses to individual theta bursts were analyzed to determine the burst area; to evaluate treatment effects on theta train facilitation, responses to each burst in the theta train are presented as a percentage change from the area of the initial burst response. […] Statistical significance was assessed using either two-way repeated-measures ANOVA to compare values that were stable over time or Mann-Whitney Utest to compare groups expressing different decay rates (i.e., values not stable over time); statistical analyses were performed using SPSS version 15.0 (SPSS, Chicago, Ill.) Variance for physiology experiments is expressed as SEM.

Assay [1] relates to hippocampal slices from Fmr1-KO mice. The assay can be described thus: LTP (fEPSP slope) after theta burst stimulation in field CA1 of hippocampal slices from Fmr1-KO mice. As to conditions: for effect on TBS-induced increase in fEPSP slope (30-40 min post-TBS): compared with ACSF alone. The method, then:
Transverse hippocampal slices (350 m) through the mid-septotemporal hippocampus were prepared with a vibratome (VT 1000 S; Leica, Bannockbum, Ill.) in ice-cold artificial CSF [ACSF; containing (in mM) 124 NaCl, 3 KCl, 1.25 KH2PO4, 3.4 CaCl2, 2.5 MgSO4, 26 NaHCO3, and 10 dextrose, pH 7.35) from young (2-3 months old) adult Fmr1-KO and wild-type (WT) mice (unless otherwise specified, chemicals were from Sigma, St. Louis, Mo.). […] Related to this, pharmacological results obtained with such slices accurately predict effects obtained with chronic recordings or biochemical assays from behaving animals (Staubli et al., 1994; Lauterbom et al., 2003), a point that is of importance to those aspects of the present work concerned with therapeutic strategies. All experiments were initiated between 9:00 and 11:00 A.M., and slices from Fmr1-KO and WT animals were randomized across two chambers and run simultaneously. Slices were maintained at 31±1° C. in an interface recording chamber with the slice surface exposed to warm, humidified 95% O2/5% CO2 and continuous ACSF perfused at a rate of 60-70 ml/hr. Slices equilibrated to the chamber for at least 1 h before recordings were initiated. A single glass electrode (2 M NaCl) was placed within the mid proximodistal CA1b stratum radiatum and was used to record field EPSPs (fEPSPs) from the apical dendrites of CA1 pyramidal cells. Orthodromic stimulation was delivered at two sites (CA1a and CA1c) in the apical Schaffer collateral-commissural projections to provide convergent activation of CA1b pyramidal cells. Pulses were administered in an alternating manner to the two electrodes at 0.05 Hz by using a current that elicited a 50% maximal response. […] Input-output and paired-pulse facilitation assays were performed as described previously (Rex et al., 2005). Synaptic potentiation was induced with a train of 5 or 10 theta bursts (each containing four pulses at 100 Hz, with an interburst interval of 200 ms) Carson et al., 1986; Kramar and Lynch, 2003; Rex et al., 2005). Evoked responses were digitized (NacGather 2.0; Theta Burst, Irvine, Calif.) and analyzed for amplitude and fall slope; data are presented as a percentage of baseline. Responses to individual theta bursts were analyzed to determine the burst area; to evaluate treatment effects on theta train facilitation, responses to each burst in the theta train are presented as a percentage change from the area of the initial burst response. Unless otherwise stated, group size values presented in the figures represent number of slices tested. Generally two to three slices were tested from a given mouse, and no fewer than three mice were used in any group; for statistical analyses, each slice was considered an individual n. Statistical significance was assessed using either two-way repeated-measures ANOVA to compare values that were stable over time or Mann-Whitney Utest to compare groups expressing different decay rates (i.e., values not stable over time); statistical analyses were performed using SPSS version 15.0 (SPSS, Chicago, Ill.) Variance for physiology experiments is expressed as SEM.
A recirculating perfusion system (oxygenated and heated as above) with a peristaltic pump (60 ml/hr; MasterFlex C/L; Cole-Parmer, Vernon Hills, Ill.) was used for experiments in which purified BDNF (catalog #GF029; Millipore, Temecula, Calif.) was administered to slices. The purity of the recombinant (mature) BDNF was confirmed using Western blot analyses: a single 14 kDa band was observed under denaturing conditions. Slices received BDNF for 30 min to 1 h before physiological recording. BDNF stock was prepared in ddH2O at a concentration of 50 ng/ml (this is equivalent to 1.85 nM based on the 27 kDa size of the dimer) and stored at −20° C. Control slices from the same animals received ACSF alone in parallel on a second recirculating interface chamber. […]

Assay [2] has as its system hippocampal slices from WT mice. The assay can be described thus: LTP (fEPSP slope) after theta burst stimulation in field CA1 of hippocampal slices from wild-type mice. How it is done:
as §1, with “SEM. […]” for “SEM.”

The mark [3] stands for this setting: WT slices, pair of theta bursts, mean of 6 slices.
Where [4] appears, read: Fmr1-KO slices, five theta bursts.

Consider `N[C@@H](CCCP(=O)(O)O)C(=O)O` [APV], for which the “effect of APV on theta burst responses” value with NMDA receptor (Fmr1-KO slices, pair of theta bursts with and without APV) was “marked, and reversible, depression”. In the assay with NMDA receptor (setting [3]), the “effect of APV on the first burst response” value is “slight reduction in the half-width of the fourth fEPSP” and the “effect of APV on the second burst response” value is given as “reduced the size of fEPSPs 2 through 4”.

B1: BDNF: purified recombinant (mature) BDNF, catalog #GF029; Millipore; single 14 kDa band under denaturing conditions (protein, UniProt P23560 19-247, looked up)
Neurotrophic factor BDNF …: APMKEANIRGQGGLAYPGVRTHGTLESVNGPKAGSRGLTSLADTFEHVIEELLDEDQKVRPNEENNKDADLYTSRVMLSSQVPLEPPLLFLLEEYKNYLDAANMSMRVRRHSDPARRGELSVCDSISEWVTAADKKTAVDMSGGTVTVLEKVPVSKGQLKQYFYETKCNPMGYTKEGCRGIDKRHWNSQCRTTQSYVRALTMDSKKRIGWRFIRIDTSCVCTLTIKRGR
With B1, the LTP above baseline in assay [1] (Fmr1-KO slices treated with BDNF 15 ng/ml) is recorded as more than 40%. Also, the “slope of the fEPSP enhanced above baseline” value in assay [1] (Fmr1-KO slices, BDNF 2 nM from 30 min before theta burst stimulation, five theta bursts, 40-50 min post-TBS) stood at 44%. Further, in assay [1] (Fmr1-KO slices, BDNF 50 ng/ml bath-applied, five theta bursts, minutes 30-40 post-TBS, mean ±SEM), the “degree of LTP (fEPSP slope, percent above baseline)” value was 42.1±8.6%. The “effect on input-output curves / baseline transmission (fEPSP amplitude)” value in assay [1] (Fmr1-KO slices, BDNF 50 ng/ml vs ACSF alone or heat-inactivated BDNF) is listed as “no effect; also recorded: did not alter”. Also, the “effect on facilitation of burst responses during theta trains” value in assay [1] (Fmr1-KO slices, BDNF 50 ng/ml vs ACSF and heat-inactivated BDNF) is “did not measurably affect”; in assay [2] (BDNF 50 ng/ml vs ACSF), “did not measurably affect”. In addition, the “restoration of LTP” value in assay [1] (Fmr1-KO slices, brief infusion of 50 ng/ml BDNF, threshold theta burst stimulation) is “fully restored LTP”. Besides, the “effect on TBS-induced increase in fEPSP slope (30-40 min post-TBS)” value in assay [1] (setting [4]) is recorded as “enhanced”. Also, the “potentiation (fEPSP slope, percent above baseline)” value in assay [2] (BDNF 50 ng/ml bath-applied, five theta bursts, minutes 30-40 post-TBS, mean ±SEM) is given as 51.3±8.6%. The “effect on input-output curves” value in assay [2] (BDNF 50 ng/ml vs ACSF alone) is “did not alter”.

B2: heat-inactivated BDNF: BDNF heat-inactivated by boiling for 5 min immediately before use; specificity control (protein, UniProt P23560 19-247, looked up)
Neurotrophic factor BDNF …: APMKEANIRGQGGLAYPGVRTHGTLESVNGPKAGSRGLTSLADTFEHVIEELLDEDQKVRPNEENNKDADLYTSRVMLSSQVPLEPPLLFLLEEYKNYLDAANMSMRVRRHSDPARRGELSVCDSISEWVTAADKKTAVDMSGGTVTVLEKVPVSKGQLKQYFYETKCNPMGYTKEGCRGIDKRHWNSQCRTTQSYVRALTMDSKKRIGWRFIRIDTSCVCTLTIKRGR
modifications: heat-inactivated
notes: specificity control
Take B2: in assay [1] (setting [4]), the “effect on TBS-induced increase in fEPSP slope (30-40 min post-TBS)” value is “no effect”.
